Results on two proteins are retold here after article PMC2871135, “Engineering Cofactor Preference of Ketone Reducing Biocatalysts: A Mutagenesis Study on a γ-Diketone Reductase from the Yeast Saccharomyces cerevisiae Serving as an Example” (International Journal of Molecular Sciences, 2010).

Substrate in data set [1]: NC(=O)C1=CN([C@@H]2O[C@H](COP(=O)(O)OP(=O)(O)OC[C@H]3O[C@@H](n4cnc5c(N)ncnc54)[C@H](OP(=O)(O)O)[C@@H]3O)[C@@H](O)[C@H]2O)C=CC1
Briefly: cells, lysate or membranes. Type of data set: biochemical, Saccharomyces cerevisiae. The conditions noted are these: 10 mM 2,5-hexanedione as co-substrate, sodium phosphate pH 7.0, 30 °C, cofactor varied 0.1-4 mM, enzyme enriched from E. coli extract, not homogeneous.

Substrate in data set [2]: NC(=O)C1=CN([C@@H]2O[C@H](COP(=O)(O)OP(=O)(O)OC[C@H]3O[C@@H](n4cnc5c(N)ncnc54)[C@H](O)[C@@H]3O)[C@@H](O)[C@H]2O)C=CC1
Briefly: cells, lysate or membranes. Type of data set: biochemical, Saccharomyces cerevisiae. The settings on record: 10 mM 2,5-hexanedione as co-substrate, sodium phosphate pH 7.0, 30 °C, cofactor varied 0.1-4 mM, enzyme enriched from E. coli extract, not homogeneous.

B1: Gre2p (Saccharomyces cerevisiae S288C) (protein)
chain: MSVFVSGANGFIAQHIVDLLLKEDYKVIGSARSQEKAENLTEAFGNNPKFSMEVVPDISKLDAFDHVFQKHGKDIKIVLHTASPFCFDITDSERDLLIPAVNGVKGILHSIKKYAADSVERVVLTSSYAAVFDMAKENDKSLTFNEESWNPATWESCQSDPVNAYCGSKKFAEKAAWEFLEENRDSVKFELTAVNPVYVFGPQMFDKDVKKHLNTSCELVNSLMHLSPEDKIPELFGGYIDVRDVAKAHLVAFQKRETIGQRLIVSEARFTMQDVLDILNEDFPVLKGNIPVGKPGSGATHNTLGATLDNKKSKKLLGFKFRNLKETIDDTASQILKFEGRI
notes: GRE2 subcloned from p423-GPD-YOL151w into pRSET B, expressed in E. coli BL21(DE3) pLysS
A word on the Km: it is the substrate concentration at which the rate is half of its maximum. Broadly, the Vmax is the rate approached at saturating substrate. Turning to B1, in data set [1], the Km is 38 µM and the maximal velocity (Vmax) was found to be 0.288 µmol/min/mg. Further, in data set [2], the Km was 1450 µM and the Vmax worked out at 0.081 µmol/min/mg.

B2: Gre2p (Saccharomyces cerevisiae S288C; N9E) (protein)
chain: MSVFVSGAEGFIAQHIVDLLLKEDYKVIGSARSQEKAENLTEAFGNNPKFSMEVVPDISKLDAFDHVFQKHGKDIKIVLHTASPFCFDITDSERDLLIPAVNGVKGILHSIKKYAADSVERVVLTSSYAAVFDMAKENDKSLTFNEESWNPATWESCQSDPVNAYCGSKKFAEKAAWEFLEENRDSVKFELTAVNPVYVFGPQMFDKDVKKHLNTSCELVNSLMHLSPEDKIPELFGGYIDVRDVAKAHLVAFQKRETIGQRLIVSEARFTMQDVLDILNEDFPVLKGNIPVGKPGSGATHNTLGATLDNKKSKKLLGFKFRNLKETIDDTASQILKFEGRI
notes: as for B1
Turning to B2, in data set [1], the Km amounted to 1520 µM and the Vmax turned out to be 0.272 µmol/min/mg. Besides, in data set [2], the Michaelis-Menten constant (Km) came to 960 µM and the Vmax came to 0.147 µmol/min/mg.
